Assay results as given in the supplement of paper PMC11316812.
± gives the standard deviation of the averaged measurements.

Tests used:
hTERT-HMEC = assay: percentage of EdU-negative (G0-arrested) nuclei per well, 72 h; higher = more G0 arrest; details: reference: sequence is the full UniProt precursor, the tested protein was the secreted form or ectodomain
MCF7 = assay: as above; details: reference: sequence is the full UniProt precursor, the tested protein was the secreted form or ectodomain
[1] = protein concentration 0.0219975 µM
[2] = protein concentration 0.219975 µM
[3] = protein concentration 0.01225 µM
[4] = protein concentration 0.1225 µM
[5] = protein concentration 0.0225 µM
[6] = protein concentration 0.0191325 µM
[7] = protein concentration 0.191325 µM
[8] = protein concentration 0.0357143 µM
[9] = protein concentration 0.357143 µM
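Note: secreted proteins added to cultured cells, EdU pulse at the end, nuclei found by Hoechst imaging, EdU status from nuclear versus surrounding ring intensity ratio, PBS as neutral control.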

MCHQQLVISWFSLVFLASPLVAIWELKKDVYVVELDWYPDAPGEMVVLTCDTPEEDGITWTLDQSSEVLGSGKTLTIQVKEFGDAGQYTCHKGGEVLSHSLLLLHKKEDGIWSTDILKDQKEPKNKTFLRCEAKNYSGRFTCWWLTTISTDLTFSVKSSRGSSDPQGVTCGAATLSAERVRGDNKEYEYSVECQEDSACPAAEESLPIEVMVDAVHKLKYENYTSSFFIRDIIKPDPPKNLQLKPLKNSRQVEVSWEYPDTWSTPHSYFSLTFCVQVQGKSKREKKDRVFTDKTSATVICRKNASISVRAQDRYYSSSWSEWASVPCS
percentage of EdU-negative (hTERT-HMEC; [1]): 5.23 ± 1.3% | percentage of EdU-negative (hTERT-HMEC; [2]): 7.74 ± 1.1% | percentage of EdU-negative (MCF7; [1]): 27.4 ± 2.1% | percentage of EdU-negative (MCF7; [2]): 27.5 ± 0.78%

MIPFLPMFSLLLLLIVNPINANNHYDKILAHSRIRGRDQGPNVCALQQILGTKKKYFSTCKNWYKKSICGQKTTVLYECCPGYMRMEGMKGCPAVLPIDHVYGTLGIVGATTTQRYSDASKLREEIEGKGSFTYFAPSNEAWDNLDSDIRRGLESNVNVELLNALHSHMINKRMLTKDLKNGMIIPSMYNNLGLFINHYPNGVVTVNCARIIHGNQIATNGVVHVIDRVLTQIGTSIQDFIEAEDDLSSFRAAAITSDILEALGRDGHFTLFAPTNEAFEKLPRGVLERIMGDKVASEALMKYHILNTLQCSESIMGGAVFETLEGNTIEIGCDGDSITVNGIKMVNKKDIVTNNGVIHLIDQVLIPDSAKQVIELAGKQQTTFTDLVAQLGLASALRPDGEYTLLAPVNNAFSDDTLSMDQRLLKLILQNHILKVKVGLNELYNGQILETIGGKQLRVFVYRTAVCIENSCMEKGSKQGRNGAIHIFREIIKPAEKSLHEKLKQDKRFSTFLSLLEAADLKELLTQPGDWTLFVPTNDAFKGMTSEEKEILIRDKNALQNIILYHLTPGVFIGKGFEPGVTNILKTTQGSKIFLKEVNDTLLVNELKSKESDIMTTNGVIHVVDKLLYPADTPVGNDQLLEILNKLIKYIQIKFVRGSTFKEIPVTVYTTKIITKVVEPKIKVIEGSLQPIIKTEGPTLTKVKIEGEPEFRLIKEGETITEVIHGEPIIKKYTKIIDGVPVEITEKETREERIITGPEIKYTRISTGGGETEETLKKLLQEEVTKVTKFIEGGDGHLFEDEEIKRLLQGDTPVRKLQANKKVQGSRRRLREGRSQ
percentage of EdU-negative (hTERT-HMEC; [3]): 5.41 ± 1.4% | percentage of EdU-negative (hTERT-HMEC; [4]): 5 ± 1.3% | percentage of EdU-negative (MCF7; [3]): 25.5 ± 0.97% | percentage of EdU-negative (MCF7; [4]): 27.4 ± 1.6%

MTPSRLPWLLSWVSATAWRAARSPLLCHSLRKTSSSQGGKSELVKQSLKKPKLPEGRFDAPEDSHLEKEPLEKFPDDVNPVTKEKGGPRGPEPTRYGDWERKGRCIDF [Q5VUM1]
percentage of EdU-negative (hTERT-HMEC; [5]): 5.46 ± 0.82% | percentage of EdU-negative (hTERT-HMEC; protein concentration 0.225 µM): 5.79 ± 0.17% | percentage of EdU-negative (MCF7; [5]): 28 ± 2.2% | percentage of EdU-negative (MCF7; protein concentration 0.225 µM): 25.4 ± 1.5%

MLLPWATSAPGLAWGPLVLGLFGLLAASQPQAVPPYASENQTCRDQEKEYYEPQHRICCSRCPPGTYVSAKCSRIRDTVCATCAENSYNEHWNYLTICQLCRPCDPVMGLEEIAPCTSKRKTQCRCQPGMFCAAWALECTHCELLSDCPPGTEAELKDEVGKGNNHCVPCKAGHFQNTSSPSARCQPHTRCENQGLVEAAPGTAQSDTTCKNPLEPLPPEMSGTMLMLAVLLPLAFFLLLATVFSCIWKSHPSLCRKLGSLLKRRPQGEGPNPVAGSWEPPKAHPYFPDLVQPLLPISGDVSPVSTGLPAAPVLEAGVPQQQSPLDLTREPQLEPGEQSQVAHGTNGIHVTGGSMTITGNIYIYNGPVLGGPPGPGDLPATPEPPYPIPEEGDPGPPGLSTPHQEDGKAWHLAETEHCGATPSNRGPRNQFITHD
percentage of EdU-negative (hTERT-HMEC; [6]): 5.06 ± 0.25% | percentage of EdU-negative (hTERT-HMEC; [7]): 5.55 ± 1.9% | percentage of EdU-negative (MCF7; [6]): 26.7 ± 0.76% | percentage of EdU-negative (MCF7; [7]): 27.3 ± 0.76%

MSRREGSLEDPQTDSSVSLLPHLEAKIRQTHSLAHLLTKYAEQLLQEYVQLQGDPFGLPSFSPPRLPVAGLSAPAPSHAGLPVHERLRLDAAALAALPPLLDAVCRRQAELNPRAPRLLRRLEDAARQARALGAAVEALLAALGAANRGPRAEPPAATASAASATGVFPAKVLGLRVCGLYREWLSRTEGDLGQLLPGGSA
percentage of EdU-negative (hTERT-HMEC; [5]): 4.52 ± 0.57% | percentage of EdU-negative (hTERT-HMEC; protein concentration 0.225 µM): 6.17 ± 0.093% | percentage of EdU-negative (MCF7; [5]): 25.7 ± 2.9% | percentage of EdU-negative (MCF7; protein concentration 0.225 µM): 26.5 ± 1.6%

MELWGAYLLLCLFSLLTQVTTEPPTQKPKKIVNAKKDVVNTKMFEELKSRLDTLAQEVALLKEQQALQTVCLKGTKVHMKCFLAFTQTKTFHEASEDCISRGGTLGTPQTGSENDALYEYLRQSVGNEAEIWLGLNDMAAEGTWVDMTGARIAYKNWETEITAQPDGGKTENCAVLSGAANGKWFDKRCRDQLPYICQFGIV
percentage of EdU-negative (hTERT-HMEC; [8]): 5.64 ± 0.21% | percentage of EdU-negative (hTERT-HMEC; [9]): 25.4 ± 5% | percentage of EdU-negative (MCF7; [8]): 23.3 ± 2.7% | percentage of EdU-negative (MCF7; [9]): 26.7 ± 0.6%
